This note sets out measurements from the nanobody polyreactivity screen of Harvey et al. (2022).

This data set is described as follows: yeast display, Sf9 membrane polyspecificity reagent, FACS + sequencing; frameworks hold sequencing errors. In outline:
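Genes from sorted yeast were amplified by colony PCR, read by MiSeq 2 × 250 sequencing and filtered on CDR length. These cells carried a synthetic nanobody library in Saccharomyces cerevisiae BJ5465 and were sorted by FACS into low and high (top ~1%) gates on anti-HA and streptavidin fluorescence. Polyreactivity is labelled according to the gate of origin.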
As for “QVQLVESGGGLVQAGGSLRLSCAASGRTFYLNAMGWYRPAPGKDRELVATITSRAGSTRYADSVKGRFTISRDNAKNTVYLQMNSLKPEDTAVYYCAVRSTDPYRRGPSYYYWGQGTQVTVSS”, the “polyreactivity (PSR sort gate)” value is on record as “high polyreactivity”.

With “QVQLVESGGGLVQAGGSLRLSCAASGRTFYLNAMGWYRQAPGKVRELVAAIRFSGGSTYYADSVKGRFTISRDNAKNTVYLQMNSLKPEDTAVYYCNAGPYHSLYPTVSEYGYWGQGTQVTVSS”, the “polyreactivity (PSR sort gate)” value was “low polyreactivity”.

For “QVQLVESGGGLVQAGGSLRLSCAASGRTFYLYTMGWYRQAPGKERELVAAITGGGRTYYADSVKGRFTISRDNAKNTVYLQMNSLKPEDTAVYYCNADYAYYSYDYWGQGTQVTVSS”, the “polyreactivity (PSR sort gate)” value is on record as “low polyreactivity”.

Regarding “QVQLVESGGGLVQAGGSLRLSCAASGRTFYLYTMGWYRQAPGKERELVAGISWSGGSTYADSVKGRFTISRDNAKNTVYLQMNSLKPEDTAVYYCAAEVYYGYDYWGQGTQVTVSS”, the “polyreactivity (PSR sort gate)” value was “low polyreactivity”.

As to “QVQLVESGGGLVQAGGSLRLSCAASGRTFYNYAMGWYRQAPGKERELVAAIDWGSDSTYYADSVKGRFTISRDNAKNTVYLQMNSLKPEDTAVYYCAAYLVSVNSRTYDYWGQGTQVTVSS”, the “polyreactivity (PSR sort gate)” value is listed as “low polyreactivity”.

Regarding “QVQLVESGGGLVQAGGSLRLSCAASGRTFYNYAMGWYRQAPGKERELVAAITRGGSTYYADSVKGRFTISRDNAKNTVYLQMNSLKPEDTAVYYCNAYYYIPFEGRGYSKLDYWGQGTQVTVSS”, the “polyreactivity (PSR sort gate)” value is “high polyreactivity”.

With “QVQLVESGGGLVQAGGSLRLSCAASGRTFYPNAMGWYRQAPGKERELVAGIRSSGDSTYYADSVKGRFTISRDNAKNTVYLQMNSLKPEDTAVYYCNRDLTPSYDYWGQGTQVTVSS”, the “polyreactivity (PSR sort gate)” value is “low polyreactivity”.

Turning to “QVQLVESGGGLVQAGGSLRLSCAASGRTFYPYAMGWYRQAPGKEREFVAAITWTGDSTYYADSVKGRFTISRDNAKNTVYLQMNSLKPEDTAVYYCAADLSSSPYYYGYDYWGQGTQVTVSS”, the “polyreactivity (PSR sort gate)” value is “low polyreactivity”.

Regarding “QVQLVESGGGLVQAGGSLRLSCAASGRTFYPYAMGWYRQAPGKERELVAAIRRSDGSTYYADSVKGRFTISRDNAKNTVYLQMNSLKPEDTAVYYFAAGQGSRNQYYYWGHGTQVTVSS”, the “polyreactivity (PSR sort gate)” value is listed as “high polyreactivity”.

Regarding “QVQLVESGGGLVQAGGSLRLSCAASGRTFYPYAMGWYRQAPGKERELVAAISSSGGSTYYADSVKGRFTISRDNAKNTVYLQRNSLKPEYTPVYYCASYLRPGGNYYWGQGTQVTVSS”, the “polyreactivity (PSR sort gate)” value was “high polyreactivity”.

As to “QVQLVESGGGLVQAGGSLRLSCAASGRTFYPYAMGWYRQATGKERELVAAIDYSSATTYYADSVKGRFTISRDNAKNTVYLQMNSLKPEDTAVYYCARVGIGVGWSKLNYWGQGTQVTVSS”, the “polyreactivity (PSR sort gate)” value is listed as “low polyreactivity”.

For the sequence “QVQLVESGGGLVQAGGSLRLSCAASGRTFYQNVMGWSRQAPGKERELVAAITWGGGSTYYADSVKGRFTISRDNAKNTVYLQMNSLKPEDTAVYYCNRTFRSRLPTSRGYDYWGQGTQVTVSS”, the “polyreactivity (PSR sort gate)” value was “low polyreactivity”.

Consider “QVQLVESGGGLVQAGGSLRLSCAASGRTFYRNAMGWSRQAPGKERELVAAISSTGSTYYAESVKGRFTSSRDNAKNTVYLQMNSLKPEDTAVYYCARGVHGIFGYLGQGTQVTVSS”, for which the “polyreactivity (PSR sort gate)” value was “low polyreactivity”.

“QVQLVESGGGLVQAGGSLRLSCAASGRTFYRNAMGWYRQAPGKERELVAAISSTGSTYSADSVKGRFTISRDNAKNTVYLQMNSLKPEDTAVYYCARGVHGIFGYWGQGTQVTVSS”: the “polyreactivity (PSR sort gate)” value was “low polyreactivity”.

In the case of “QVQLVESGGGLVQAGGSLRLSCAASGRTFYRNAMGWYRQAPGKERELVARISRNGGTTYYADSVKGRFTISRDNAKNTVYLQMNSLKPEDTAVYYCAAPIYDGARGDYWGQGTQVTVSS”, the “polyreactivity (PSR sort gate)” value is given as “high polyreactivity”.

With “QVQLVESGGGLVQAGGSLRLSCAASGRTFYRNAMGWYRQAPGKERELVGAISQSGGSTYYADSVKGRFKISRDNAKNTVYLQMNCLIPEDTAVYSCAAGKSRRVGMDYWGQGTQVTVSS”, the “polyreactivity (PSR sort gate)” value is reported as “high polyreactivity”.

On to “QVQLVESGGGLVQAGGSLRLSCAASGRTFYRNAMGWYRQAPGKETELVAAITWSGVSTYYADSVKGRFTISRDNAKNTVYIQMNSLKPEDTAVYYCSRARVLRNGHYFQLRNYDYWGQGPQVTVSS”, for which the “polyreactivity (PSR sort gate)” value was “high polyreactivity”.

Turning to “QVQLVESGGGLVQAGGSLRLSCAASGRTFYRNAMGWYRQARGKERELVAAISSRGGSTYYADSVKGRFTISRDNAKNTVYLQMNSLKPEDTAVYYCAARYLYLWADYEYGYWGQGTQVTVSS”, the “polyreactivity (PSR sort gate)” value is “high polyreactivity”.

“QVQLVESGGGLVQAGGSLRLSCAASGRTFYRYAMGWYRQAPGKERELVAAISGSGGRTYYADSVKGRFTISRDNAKNTVYFQMNSLKPEDTAVYYCNAYPHAYTGSTREGDYWGQGTQVTVSS”: the “polyreactivity (PSR sort gate)” value is given as “high polyreactivity”.

Regarding “QVQLVESGGGLVQAGGSLRLSCAASGRTFYRYAMGWYRQAPGKERELVAAITTGGGSTYYADSVKGRFTISRDNAKNTVYLQMNSLKPEETAVYYCNVYSSYTRRTLGDYWGQGTQVTVSS”, the “polyreactivity (PSR sort gate)” value was “high polyreactivity”.

For the sequence “QVQLVESGGGLVQAGGSLRLSCAASGRTFYRYAMGWYRQAPGKERELVAAITWSGGSTYYADSVKGRFTTSRDNAKNTVYFQMNSLKPEDTAVYYCARRLYPYRPTAYDYWGQGTQVTVSS”, the “polyreactivity (PSR sort gate)” value was “low polyreactivity”.

On to “QVQLVESGGGLVQAGGSLRLSCAASGRTFYRYAMGWYRQAPGKERELVAGITSGGITYYADSVKGRFTISRDNAKNTVYLQMNSLKPEDTAVYYCAASYAFFSYRAWYTSGNEYWGQGTQVTVSS”, for which the “polyreactivity (PSR sort gate)” value is “high polyreactivity”.

In the case of “QVQLVESGGGLVQAGGSLRLSCAASGRTFYRYAMGWYRQAPGKERELVARITNRGGITYYADSVKGRFTISRDNAKNTVYLQMNSLKPEDTAVYYCAADPIGYTWAGTHGDYYNEHDYWGQGTQVTVSS”, the “polyreactivity (PSR sort gate)” value is on record as “low polyreactivity”.

Turning to “QVQLVESGGGLVQAGGSLRLSCAASGRTFYRYAMGWYRQAPGKERELVAVISGRGGGTYYADSVKGRFTISRDNAKNTVYLQMNSLKPEDTAVYYCAKEYWGVTPTYYYWGQGTQVTVSS”, the “polyreactivity (PSR sort gate)” value is “high polyreactivity”.

Turning to “QVQLVESGGGLVQAGGSLRLSCAASGRTFYRYTMGWYRQAPGKERELVAAIDRRGGSTYYADSVKGRFTISRDNAKNTVYLQMNSLKPEDTAVYYCNAVTHYSFDYWGQGTQVTVSS”, the “polyreactivity (PSR sort gate)” value was “high polyreactivity”.

Consider “QVQLVESGGGLVQAGGSLRLSCAASGRTFYSKAMGWYRQAPGKERELVAAISSSGSSTSYADSVKGRFTMSRDNAKNTVYLQMNSLKPEDTAVYYCAARTKRRANRDYWGQGTQVTVSS”, for which the “polyreactivity (PSR sort gate)” value is given as “high polyreactivity”.

Take “QVQLVESGGGLVQAGGSLRLSCAASGRTFYSNAKGWSRQAPGKERELVAGISKRGTITYYADSVKGRFTISRDNAKNTVYLQMNSLKPEDTAVYYCAAKPPSYIVKGDGRDDYWGQGTQVTVSS”: the “polyreactivity (PSR sort gate)” value was “high polyreactivity”.

On to “QVQLVESGGGLVQAGGSLRLSCAASGRTFYSNAMGWYRQAPGKERELVAAIRRSRGRTYYADSVKGRFTISRDIAKNTVYLQMNSLKPEDTAVYYCATARYRAEMGYWGQGTQVTVSS”, for which the “polyreactivity (PSR sort gate)” value was “high polyreactivity”.

“QVQLVESGGGLVQAGGSLRLSCAASGRTFYSNAMGWYRQAPGKERELVAAISSSGGRTFYADSVKGRFTISRDNAKNTVYLQMNSLKPEDTAVYYCAAVPGYPRDSLYNYWGQGTQVTVSS”: the “polyreactivity (PSR sort gate)” value is given as “high polyreactivity”.

As for “QVQLVESGGGLVQAGGSLRLSCAASGRTFYSNAMGWYRQAPGKERELVAAISYNDGSTYYADSVKGRFTISRDNAKNTVYLQMNSLKPEDTAVYYCNADVGAWAWYTRYDYWGQGTQVTVSS”, the “polyreactivity (PSR sort gate)” value is on record as “low polyreactivity”.

As to “QVQLVESGGGLVQAGGSLRLSCAASGRTFYSNTIGWYRQAPGNESELVAAINRGGSTYYADSVKGRFTISRDNAKNTVYFQMNSLKPEDTAVYYCAVGYAHSSNRRYYYKKTHGYWGQGTQVTVSS”, the “polyreactivity (PSR sort gate)” value is listed as “low polyreactivity”.

For the sequence “QVQLVESGGGLVQAGGSLRLSCAASGRTFYSYAMGWYIQAPGKERELVATINRGSGTNYADSVKGRFTISRDNAKNSVYLQMNSLKPEDSAVYSCAVDRRVLWYHMDYWGQGTKVTVSS”, the “polyreactivity (PSR sort gate)” value is “high polyreactivity”.

As for “QVQLVESGGGLVQAGGSLRLSCAASGRTFYSYAMGWYRQAPGKERELVAAISAGGSTYYADSVKGRFTISRDNAKNTVYLQMNSLKPEDTAVYYCAATYSYYYARYHYWGQGTQVTVSS”, the “polyreactivity (PSR sort gate)” value is on record as “high polyreactivity”.

For the sequence “QVQLVESGGGLVQAGGSLRLSCAASGRTFYSYAMGWYRQAPGKERELVAGITWSGTSTYYADSVKGRFTISRDNAKNTVYLQMNSLKPEDTAVYYCAAATLYSRYDYWGQGTQVTVSS”, the “polyreactivity (PSR sort gate)” value is recorded as “low polyreactivity”.

On to “QVQLVESGGGLVQAGGSLRLSCAASGRTFYSYAMGWYRQAPGKERELVASISYGGGTNYADSVKGRFTISRDNAKNTVYLQMNSLKPEDTAVYYCAAKYWFFYPYDYWGQGTQVTVSS”, for which the “polyreactivity (PSR sort gate)” value was “low polyreactivity”.

For “QVQLVESGGGLVQAGGSLRLSCAASGRTFYSYTMGWYRPAPGKERELVAAISSRGGSTYYADSVKGRFTISRDNAKNTVYLQMNSLKPEDTAVYYCNAARYGRHLSTYDYWGQGTQVTVSS”, the “polyreactivity (PSR sort gate)” value is listed as “high polyreactivity”.

For the sequence “QVQLVESGGGLVQAGGSLRLSCAASGRTFYTYAMGWYRQAPGKARELVAAISSSGSTYYADSVKGRFTISRDNAKNTVDLQMNSLKPEDTAGYYCNARTSRYRRGGDSWGQGTQVTVSS”, the “polyreactivity (PSR sort gate)” value is given as “high polyreactivity”.

As to “QVQLVESGGGLVQAGGSLRLSCAASGRTFYTYVMGWYRQAPGKEREFVAAITYSGGSTYYADSVKGRFTISRDNAKNTVYLQMNSLKPEDTAVYYCNDEWTYSEWYGQYLEFDYWGQGTQVTVSS”, the “polyreactivity (PSR sort gate)” value is on record as “high polyreactivity”.

As for “QVQLVESGGGLVQAGGSLRLSCAASGRTFYVKSMGWYRQAPGKERELVAGISFSDGSTYYADSVKGRFTISRDNAKNTVYLQMNSLKPEDTAVYYCATVGAFDIYYGYGYWGQGTQVTVSS”, the “polyreactivity (PSR sort gate)” value was “low polyreactivity”.

With “QVQLVESGGGLVQAGGSLRLSCAASGRTFYVNAMGWSRHAPGIERELVAGISFSDGSTYYADSVKWRFTISRDNAKSTVYLQMNSLKPEDTAVYYCATVGALDIYYGYGYWGQGTQVTVSS”, the “polyreactivity (PSR sort gate)” value is given as “low polyreactivity”.

Turning to “QVQLVESGGGLVQAGGSLRLSCAASGRTFYVSAMGWYRQAPGKERELVAAISWSGGSTYYADSVKGRFTISRDNAKNTVYLQMNSLKPEDTAVYYCAAQTYQRHVVAYDYWGQGTQVTVSS”, the “polyreactivity (PSR sort gate)” value is “low polyreactivity”.
